Measurements from US20230002480A1.

Experiments:
Experiment in all cases: cell-based or functional assay
[1] = target: HIV-1 Env of pseudovirus 211-9 (HIV-1)
[2] = target: HIV-1 Env of pseudovirus 231966.c02 (HIV-1)
[3] = target: HIV-1 Env of pseudovirus 620345.c01 (HIV-1)
[4] = target: HIV-1 Env of pseudovirus 6545.v4.c1 (HIV-1)
[5] = target: HIV-1 Env of pseudovirus 6811.v7.c18 (HIV-1)
[6] = target: HIV-1 Env of pseudovirus BJOX010000.06.2 (HIV-1)
[7] = target: HIV-1 Env of pseudovirus C2101.c01 (HIV-1)
[8] = target: HIV-1 Env of pseudovirus CNE8 (HIV-1)
[9] = target: HIV-1 Env of pseudovirus P0402_c2_11 (HIV-1)
[10] = target: HIV-1 Env of pseudovirus P1981_C5_3 (HIV-1)
[11] = target: HIV-1 Env of pseudovirus R1166.c01 (HIV-1)
[12] = target: HIV-1 Env of pseudovirus R3265.c06 (HIV-1)
[13] = target: HIV-1 Env of pseudovirus T255-34 (HIV-1)
[14] = target: HIV-1 Env of pseudovirus 1006_11_C3_1601 (HIV-1)
[15] = target: HIV-1 Env of pseudovirus 246F C1G (HIV-1)
[16] = target: HIV-1 Env of pseudovirus 6244_13_B5_4576 (HIV-1)
[17] = target: HIV-1 Env of pseudovirus 7030102001E5(Rev-) (HIV-1)
[18] = target: HIV-1 Env of pseudovirus AC10.0.29 (HIV-1)
[19] = target: HIV-1 Env of pseudovirus BF1266.431a (HIV-1)
[20] = target: HIV-1 Env of pseudovirus CAAN5342.A2 (HIV-1)
[21] = target: HIV-1 Env of pseudovirus CAP210.2.00.E8 (HIV-1)
[22] = target: HIV-1 Env of pseudovirus CNE19 (HIV-1)
[23] = target: HIV-1 Env of pseudovirus CNE21 (HIV-1)
[24] = target: HIV-1 Env of pseudovirus CNE52 (HIV-1)
[25] = target: HIV-1 Env of pseudovirus Ce1172_H1 (HIV-1)
[26] = target: HIV-1 Env of pseudovirus Ce2010_F5 (HIV-1)
[27] = target: HIV-1 Env of pseudovirus Ce703010054_2A2 (HIV-1)
[28] = target: HIV-1 Env of pseudovirus HIV-16845-2.22 (HIV-1)
[29] = target: HIV-1 Env of pseudovirus MS208.A1 (HIV-1)
[30] = target: HIV-1 Env of pseudovirus Q259.d2.17 (HIV-1)
[31] = target: HIV-1 Env of pseudovirus REJO4541.67 (HIV-1)
[32] = target: HIV-1 Env of pseudovirus RHPA4259.7 (HIV-1)
[33] = target: HIV-1 Env of pseudovirus THRO4156.18 (HIV-1)
[34] = target: HIV-1 Env of pseudovirus WEAU_d15_410_787 (HIV-1)
[35] = target: HIV-1 Env of pseudovirus WITO4160.33 (HIV-1)
[36] = target: HIV-1 Env of pseudovirus ZM135M.PL10a (HIV-1)
[37] = target: HIV-1 Env of pseudovirus ZM249M.PL1 (HIV-1)

N49P11 (antibody)
IC50 [1]: 5.67 µg/mL | IC80 [1]: 18.2 µg/mL | MPI [1]: 100 | IC50 [2]: 4.31 µg/mL | IC80 [2]: 16 µg/mL | MPI [2]: 100 | IC50 [3]: 11.7 µg/mL | IC80 [3]: 27.9 µg/mL | MPI [3]: 100 | IC50 [4]: 6.47 µg/mL | IC80 [4]: 22.9 µg/mL | MPI [4]: 100 | IC50 [5]: 3.68 µg/mL | IC80 [5]: 14.6 µg/mL | MPI [5]: 100 | IC50 [6]: 6.81 µg/mL | IC80 [6]: 21.8 µg/mL | MPI [6]: 100 | IC50 [7]: 0.084 µg/mL | IC80 [7]: 0.505 µg/mL | MPI [7]: 100 | IC50 [8]: 0.165 µg/mL | IC80 [8]: 1.24 µg/mL | MPI [8]: 100 | IC50 [9]: 0.091 µg/mL | IC80 [9]: 0.698 µg/mL | MPI [9]: 100 | IC50 [10]: 5.29 µg/mL | IC80 [10]: 16.5 µg/mL | MPI [10]: 100 | IC50 [11]: 0.06 µg/mL | IC80 [11]: 0.336 µg/mL | MPI [11]: 100 | IC50 [12]: 0.161 µg/mL | IC80 [12]: 0.971 µg/mL | MPI [12]: 100 | IC50 [13]: 0.418 µg/mL | IC80 [13]: 3.83 µg/mL | MPI [13]: 100

N49P7.2 (antibody)
IC50 [1]: 0.363 µg/mL | IC80 [1]: 1.22 µg/mL | MPI [1]: 100 | IC50 [2]: 0.233 µg/mL | IC80 [2]: 1.11 µg/mL | MPI [2]: 100 | IC50 [3]: > 50 µg/mL | IC80 [3]: > 50 µg/mL | MPI [3]: 0 | IC50 [4]: > 50 µg/mL | IC80 [4]: > 50 µg/mL | MPI [4]: 4 | IC50 [5]: 0.541 µg/mL | IC80 [5]: 2.55 µg/mL | MPI [5]: 100 | IC50 [6]: 0.267 µg/mL | IC80 [6]: 1.11 µg/mL | MPI [6]: 100 | IC50 [7]: 0.162 µg/mL | IC80 [7]: 0.727 µg/mL | MPI [7]: 100 | IC50 [8]: 0.073 µg/mL | IC80 [8]: 0.24 µg/mL | MPI [8]: 100 | IC50 [9]: 0.106 µg/mL | IC80 [9]: 0.4 µg/mL | MPI [9]: 100 | IC50 [10]: 0.258 µg/mL | IC80 [10]: 0.716 µg/mL | MPI [10]: 100 | IC50 [11]: 0.267 µg/mL | IC80 [11]: 0.852 µg/mL | MPI [11]: 100 | IC50 [12]: 0.153 µg/mL | IC80 [12]: 0.985 µg/mL | MPI [12]: 100 | IC50 [13]: 0.167 µg/mL | IC80 [13]: 0.527 µg/mL | MPI [13]: 100

VRC07 (antibody)
neutralization IC50 [14]: 0.015 µg/mL | neutralization IC80 [14]: 0.046 µg/mL | IC50, titer in TZM.bl cells [1]: 5.92 µg/mL | IC80, titer in TZM.bl cells [1]: 38 µg/mL | IC50, titer in TZM.bl cells [2]: 0.105 µg/mL | IC80, titer in TZM.bl cells [2]: 0.471 µg/mL | neutralization IC50 [15]: 0.286 µg/mL | neutralization IC80 [15]: 1.04 µg/mL | IC50, titer in TZM.bl cells [3]: > 50 µg/mL | IC80, titer in TZM.bl cells [3]: > 50 µg/mL | neutralization IC50 [16]: 0.065 µg/mL | neutralization IC80 [16]: 0.23 µg/mL | IC50, titer in TZM.bl cells [4]: > 50 µg/mL | IC80, titer in TZM.bl cells [4]: > 50 µg/mL | IC50, titer in TZM.bl cells [5]: 0.093 µg/mL | IC80, titer in TZM.bl cells [5]: 0.435 µg/mL | neutralization IC50 [17]: 0.205 µg/mL | neutralization IC80 [17]: 0.911 µg/mL | neutralization IC50 [18]: 0.282 µg/mL | neutralization IC80 [18]: 0.986 µg/mL | neutralization IC50 [19]: 0.032 µg/mL | neutralization IC80 [19]: 0.117 µg/mL | IC50, titer in TZM.bl cells [6]: 1.06 µg/mL | IC80, titer in TZM.bl cells [6]: 10 µg/mL | IC50, titer in TZM.bl cells [7]: 0.238 µg/mL | IC80, titer in TZM.bl cells [7]: 1.4 µg/mL | neutralization IC50 [20]: 0.307 µg/mL | neutralization IC80 [20]: 1.05 µg/mL | neutralization IC50 [21]: > 50 µg/mL | neutralization IC80 [21]: > 50 µg/mL | neutralization IC50 [22]: 0.092 µg/mL | neutralization IC80 [22]: 0.232 µg/mL | neutralization IC50 [23]: 0.05 µg/mL | neutralization IC80 [23]: 0.222 µg/mL | neutralization IC50 [24]: 0.042 µg/mL | neutralization IC80 [24]: 0.142 µg/mL | IC50, titer in TZM.bl cells [8]: 0.45 µg/mL | IC80, titer in TZM.bl cells [8]: 1.56 µg/mL | neutralization IC50 [25]: > 50 µg/mL | neutralization IC80 [25]: > 50 µg/mL | neutralization IC50 [26]: 0.131 µg/mL | neutralization IC80 [26]: 0.48 µg/mL | neutralization IC50 [27]: 0.19 µg/mL | neutralization IC80 [27]: 0.912 µg/mL | neutralization IC50 [28]: 1.21 µg/mL | neutralization IC80 [28]: 6.15 µg/mL | neutralization IC50 [29]: 0.12 µg/mL | neutralization IC80 [29]: 0.425 µg/mL | IC50, titer in TZM.bl cells [9]: 0.085 µg/mL | IC80, titer in TZM.bl cells [9]: 0.422 µg/mL | IC50, titer in TZM.bl cells [10]: 0.213 µg/mL | IC80, titer in TZM.bl cells [10]: 0.609 µg/mL | neutralization IC50 [30]: 0.024 µg/mL | neutralization IC80 [30]: 0.1 µg/mL | IC50, titer in TZM.bl cells [11]: 0.81 µg/mL | IC80, titer in TZM.bl cells [11]: 3.17 µg/mL | neutralization IC50 [31]: 0.011 µg/mL | neutralization IC80 [31]: 0.037 µg/mL | neutralization IC50 [32]: 0.017 µg/mL | neutralization IC80 [32]: 0.048 µg/mL | IC50, titer in TZM.bl cells [13]: 0.227 µg/mL | IC80, titer in TZM.bl cells [13]: 0.987 µg/mL | neutralization IC50 [33]: 2.4 µg/mL | neutralization IC80 [33]: 12.2 µg/mL | neutralization IC50 [34]: 0.034 µg/mL | neutralization IC80 [34]: 0.115 µg/mL | neutralization IC50 [35]: 0.042 µg/mL | neutralization IC80 [35]: 0.193 µg/mL | neutralization IC50 [36]: 0.104 µg/mL | neutralization IC80 [36]: 0.383 µg/mL | neutralization IC50 [37]: 0.041 µg/mL | neutralization IC80 [37]: 0.145 µg/mL
